Experimental data as given in the RNAGym collection of RNA variant scans (doi:10.1073/pnas.2313332121).

B1: TPR t1 (parent)
chain: GACCAAUCUGCCCUCAGAGCUCGAGAACAUCUUCGGAUGCAGAGGAGGCAGGCUUCGGUGGCGCGAUAGCGCCAACGUCCUCAACCUCCAAUGCAUCCCACCACAUGAUGAUGCCUGAAGAGCCUUGGUUUUUUG

Variants of: B1
Experiment: polymerase ribozyme fitness, log enrichment relative to wild type (log ratio); higher = more active; in vitro selection for triplet polymerase activity
Procedure, shortened: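 Fitness measures genotype enrichment against wild-type enrichment on a logarithmic scale, with inverse-variance-weighted averaging of replicates. The logarithm is base 2, and genotypes were kept only with ≥10 input reads and ≥1 read per output in Illumina sequencing. The sequenced libraries came from one triplicate in vitro selection round, including frozen incubation at −7 °C, of PCR-built, transcribed mutant libraries of each subunit of a heterodimeric triplet polymerase ribozyme.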

Variant	polymerase ribozyme fitness (log ratio)
C40U C79A C101U	-2.1
C40U C53U U78C U92A G93A A111C	-4.45
A41U A43U G113A C124A	-1.71
A41G A121U	1.72
C40U G61A	-0.522
C40U G61C	-2.59
A41U A46U G61A	-1.65
A41C G48U G61C U92A	-5.63
C40U C115U U125G U133C	-0.584
A41G G110A U125G U130G	-2.05
A41G G127C	-0.942
A41U C56U G110A	-2.95
A41U C72U A83U U87G U92A	-0.865
A41G G63A	-1.32
A41G C86A U87C G113U	-4.97
C40U A41U C72U	-1.91
C40U U55C C70A U96A	-3.02
A41U C53G G77A	-1.35
A41C C98U	-2.48
C40U G63C C115A G135U	-1.95
A41U C49U U109A U130G	-6.38
C40U C56A C73U C82G C97U C115U	-4.44
C40U A41C G48U C56U G58C G63U	-3.13
A41G G57A C64U U130A	-1.6

Variant	polymerase ribozyme fitness (log ratio)
C40U G45A U78G U81A	-2.5
A41C C70A U81A U92C	-5.78
C40U C73A C101U	-0.192
C40U A84U G117U C123G	-1.94
A41C G44A G58C G93C	-1.87
C40U U67C G71U C89U U109A G117C A121U G128A U134A	-5.54
C40U A43G U130A	-3.26
C40U G71C	-1.58
A41U C53U G120U	-1.89
C40U C72A C82G C102A G120A G122U	-3.11
C40U C73G	-0.891
C40U A95C	-1.45
A41G G45U C62A U78A U112G	-5.01
C40U C101A U112C	0.157
A41C G61U	-0.204
C40U C97U C102A A111G	-2.88
A41U A46U C89G A121C	-7.24
A41C G69U C79G U106A A121U U126G	-0.691
C40U C73U G93U U130G	-2.36
A41G C79G	-4.32
A41G U55A C56U C72G A118U	-0.698
C40U G113C	-2.55
A41C C104A G122A	-3.8
C40U G61C U129A	-3.93

Variant	polymerase ribozyme fitness (log ratio)
A41G C49G U55A C73U A111C	-2.46
A41G C73U	-0.342
A41C G58A	-0.278
A41C G51U	-3.29
C40U G93A U96G	-0.786
A41G C56U C72A G113A G128U	-5.53
C40U C62U C73G C85G	-5.15
C40U G47C C53U	-3.49
A41G G45A A83C	-1.53
A41C C123A G128U	-2.19
C40U C72U U116G G120C G128U	-4.53
C40U C76G G120C	0.524
C40U C85A G120C	-0.223
C40U A50U G52U U87A C102A U106A A118G	-7.38
C40U C53A C73A C104U C123G	1.24
A41U C53U G117C U131A	-5.46
A41G C53G A84C U126A	-2.86
A41U C89U U116A	-4.32
A41C C89A G93U C101U G113U	-6.26
C40U A41C C79A U92A	-5.35
A41G A46C C88U C104U	-0.948
A41G G42U C73G C104A	-5.43
A41U C53G G58A C70U G110C U131A	-6.81
C40U C53U C72A C97U	-0.251

Variant	polymerase ribozyme fitness (log ratio)
C40U U112A U116C	-1.95
A41C C82U G120A	0.0706
A41U C101U	-1.85
A41G C99U	-3.39
A41U C73G	-3.06
A41G A105U	-3.3
C40U C73U G113A	-1.98
C40U G57A C85A U112A G122C C123A	-1.77
A41G G69C G117U	-4.65
A41U C94G	-1.87
C40U A41G G44A U59G G60U U112A	0.462
A41C C56U C114A A121G	-1.11
C40U G42U	-1.7
C40U G42C	-2.23
A41U A50U C53A	-3.22
C40U A118G	-1.24
A41C U55A G61U C102U	-3.48
A41U A43U	-1.37
A41G C72A C98U C124U	0.986
A41C G128C	-3.34
C40U A74G C79G	-2.36
A41C A90G	-0.105
C40U C72G G117U U130A	-4.89
A41C C82U C94G C97U	-6.09

Variant	polymerase ribozyme fitness (log ratio)
C40U C53G A75G G117A	-2.56
C40U C56U U78C C89G	-2.2
C40U G61C U126G	-4.04
A41U C56G G71U C79U G117C	-6.29
C40U G44A	-0.755
A41G C101A	-1.25
A41G G61C C94A A111U	-5.2
C40U A46U G52A C70U	-3.49
C40U C53U A66G	-1.67
C40U C62A	-1.61
A41G C49U G110A G122A G127U	-5.4
C40U C56G A84C C88A U109A	-7.02
A41C C99U	-5.06
A41G G52A U59C U125G	-1.61
A41G U78C C82A	-0.297
C40U G45C C49U G63U A83U C124G	-6.14
A41C G63A G69U G93C C101A	-4.78
A41U C49A A50U U55C G60U C115U	-5.28
C40U G42A C56U C80U G120U U132C	-3.64
C40U G63C C80U	-1.53
A41G A43U C70U A91C	-3.27
A41U A43U U54G G93A U106G	-3.16
A41U C72G	-2.06
C40U G48U C79A C124U	-3.57

Variant	polymerase ribozyme fitness (log ratio)
C40U G60U C94A C101G U106A	-1.22
A41U A83U U87G U92A	-0.357
A41C U92G G120U U129C	-2.62
C40U G48U G52A A121U	-0.327
C40U G69C	-1.61
A41C G47C C49U C86A	-2.65
C40U C49A C89G	-2.46
C40U A46U A100U	-3.37
C40U G42A G122U C123A	-1.77
C40U C73U C80U G117U	-4.15
A41U A46C A91G U112A	-3.27
A41U C88U	-1.27
A41U C88G	-2.13
C40U C94U G128U	-4.33
A41U C124U	0.983
A41U C124A	0.11
A41U C82U A103U G110C G122A	-7.14
C40U C49A A50G C62U A105G	-4.71
C40U G63C A74C U131A	-2.75
A41G A43U G61U C88G C94G G117A	-7.23
A41U C49G A83C U133G	-1.44
A41U A74U	-1.31
A41U A74C	-4.24
A41C G45U G69U C124A U126G	-1.04

Variant	polymerase ribozyme fitness (log ratio)
A41U A84C	-1.99
C40U G52C G93A	-1.38
A41U C53U U112G	-2.23
A41G U55G A74G	0.0435
A41G U81A G117U	-5.27
A41G G42C A46C U54A G60U G110A	-4.92
A41U G45A U55C	-1.85
A41G C49G U59G	-1.99
C40U G57U	-0.292
A41U G45A	-1.87
C40U C49A C79U G113U U125C	-4.03
A41C G52C C73G	-2.96
A41C C85U	-2.37
C40U A74C G77U C94U C114G	-2.59
C40U G61C C72U C88A	-1.95
A41G C62A	-1.85
A41C G57C A90G C97A	-4.54
A41G C101A C115G	-2.97
A41G G48A C80U A95G C124A	0.0211
A41U C56G G69C U92A	-5.43
A41G C73G G93C	-2.94
A41U G42C G60U	-2.24
A41C C73A C86G C104A	-4.53
